Data on 38 sequences can be found in the Immune Epitope Database (IEDB).

Some results are limits rather than exact numbers.

What is called Kd is the free concentration of one partner at which half of the binding sites on the other are occupied at equilibrium, for simple one-to-one binding.

Among the targets are HLA-A*02:03; HLA-A*02:06; HLA-A*02:02.
Assay in all cases: IEDB peptide-MHC binding, purified MHC/competitive/radioactivity; filed as Kd, often an IC50 or EC50 that approximates it; ≥ and ≤ were set here for values at or beyond the usual limits of such assays
Where [1] appears, read: source organism: Mammarenavirus guanaritoense.
The mark [2] stands for this setting: source organism: SARS coronavirus Tor2.
Where [3] appears, read: source organism: Vaccinia virus WR.
The mark [4] stands for this setting: source organism: Mammarenavirus juninense.

Take FMNDLQVSR: the Kd with HLA-A*02:03 (setting [1]) is 914 nM; with HLA-A*02:06 (setting [1]), at least 33600 nM; with HLA-A*02:02 (setting [1]), 249 nM.
Turning to VMFNGVTFST, the Kd was found to be 75.2 nM with HLA-A*02:03 (setting [2]), 131 nM with HLA-A*02:06 (setting [2]) and 0.69 nM with HLA-A*02:02 (setting [2]).
For the sequence KILSDENYL, the results for the Kd in the test with HLA-A*02:03 (setting [3]), with HLA-A*02:06 (setting [3]) and with HLA-A*02:02 (setting [3]) were 1170 nM, 27.6 nM and 196 nM, respectively.
For the sequence PLKDVERLQM, the Kd with HLA-A*02:03 (setting [3]) was at least 44000 nM; in the test with HLA-A*02:06 (setting [3]) it was at least 37300 nM; in the test with HLA-A*02:02 (setting [3]), 6160 nM.
Taken in the same sequence, the figures for HQRRLVKLL were 1680 nM, at least 21300 nM and 15900 nM.
On to KLLYAAEMV, for which the Kd with HLA-A*02:03 (setting [3]) was 54.3 nM; with HLA-A*02:06 (setting [3]), 17.9 nM; in the test with HLA-A*02:02 (setting [3]), 57.6 nM.
On to TIDAINKCV, for which the figures for the Kd with HLA-A*02:03 (setting [3]), in the test with HLA-A*02:06 (setting [3]) and with HLA-A*02:02 (setting [3]) were 634 nM, 406 nM and 90.1 nM, respectively.
In the same order, the values of LTKDRKMLEL are 133 nM, at least 20800 nM and 7700 nM.
Turning to TLFGRGVIDT, the Kd with HLA-A*02:03 (setting [3]) is 95.6 nM; with HLA-A*02:06 (setting [3]), 3310 nM; with HLA-A*02:02 (setting [3]) it was 199 nM.
For the sequence LNIALVAVSL, the Kd came to 12400 nM with HLA-A*02:03 (setting [4]), 13100 nM with HLA-A*02:06 (setting [4]) and 179 nM with HLA-A*02:02 (setting [4]).
In the case of LAEHISDSI, the Kd amounted to 731 nM in the test with HLA-A*02:03 (setting [3]), 19200 nM with HLA-A*02:06 (setting [3]) and 45.2 nM in the test with HLA-A*02:02 (setting [3]).
PTSETMYLT: the Kd with HLA-A*02:03 (setting [3]) was 3640 nM; with HLA-A*02:06 (setting [3]), at least 77100 nM; with HLA-A*02:02 (setting [3]) it was 10400 nM.
Take RLASMAICSA: in the test with HLA-A*02:03 (source organism: Dengue virus 4 Philippines/H241/1956), the Kd came out at 24.5 nM.
On to EIVKNIREGT, for which the figures for the Kd with HLA-A*02:03 (setting [3]), with HLA-A*02:06 (setting [3]) and in the test with HLA-A*02:02 (setting [3]) were 8530 nM, at least 60700 nM and at least 28500 nM, respectively.
As to QAKKPEVRI, the Kd in the test with HLA-A*02:03 (setting [3]) is 6570 nM; in the test with HLA-A*02:06 (setting [3]) it was at least 41900 nM; in the test with HLA-A*02:02 (setting [3]), 738 nM.
PLHIVCSKT: the values for the Kd with HLA-A*02:03 (setting [3]), with HLA-A*02:06 (setting [3]) and in the test with HLA-A*02:02 (setting [3]) were 2150 nM, 3890 nM and 997 nM, respectively.
Take FMECNLNEL: the Kd with HLA-A*02:03 (source organism: Homo sapiens) was 1.1 nM.
Take LIVILFIMFM: the Kd in the test with HLA-A*02:03 (setting [3]) worked out at 433 nM; with HLA-A*02:06 (setting [3]), 120 nM; with HLA-A*02:02 (setting [3]), 85.1 nM.
Taken in the same sequence, the figures for IISTDQDTM were at least 33200 nM, 2360 nM and 4300 nM.
As for IINSVSIILA, the Kd was 890 nM with HLA-A*02:03 (setting [3]), 957 nM with HLA-A*02:06 (setting [3]) and 719 nM in the test with HLA-A*02:02 (setting [3]).
Taken in the same sequence, the figures for DLNIFMTLV were 556 nM, 2190 nM and 1910 nM.
In the case of LISILMIFI, the figures for the Kd with HLA-A*02:03 (setting [3]), with HLA-A*02:06 (setting [3]) and in the test with HLA-A*02:02 (setting [3]) were at least 5000 nM, 7040 nM and 2370 nM, respectively.
MLKLFTHDIM: the Kd in the test with HLA-A*02:03 (setting [3]) was 93.1 nM; in the test with HLA-A*02:06 (setting [3]) it was at least 20300 nM; with HLA-A*02:02 (setting [3]), 84.6 nM.
Consider VIVVPVIDRL, for which the Kd with HLA-A*02:03 (setting [3]) is at least 59000 nM; with HLA-A*02:06 (setting [3]), 11100 nM; in the test with HLA-A*02:02 (setting [3]), 4570 nM.
With CVDHPFIYVI, the values for the Kd in the test with HLA-A*02:03 (setting [3]), with HLA-A*02:06 (setting [3]) and with HLA-A*02:02 (setting [3]) were 10800 nM, 1610 nM and 964 nM, respectively.
As to ELVKHGLRAL, the Kd in the test with HLA-A*02:06 (source organism: Homo sapiens) was at least 43400 nM.
With IASGQRCHFI, the results for the Kd with HLA-A*02:03 (setting [3]), with HLA-A*02:06 (setting [3]) and with HLA-A*02:02 (setting [3]) were 8320 nM, 256 nM and 526 nM, respectively.
Take DMICCDSRIV: the Kd in the test with HLA-A*02:03 (setting [3]) came to 6080 nM; with HLA-A*02:06 (setting [3]) it was 18900 nM; with HLA-A*02:02 (setting [3]), 11300 nM.
As for ALVCYIVMPV, the Kd in the test with HLA-A*02:03 (setting [2]) turned out to be 4.4 nM; with HLA-A*02:06 (setting [2]), 2.92 nM; with HLA-A*02:02 (setting [2]) it was 1.2 nM.
As to KVVGLYGNGV, the Kd with HLA-A*02:06 (source organism: Dengue virus 2 Jamaica/1409/1983) amounted to 11.8 nM.
With EVLMSPCRM, the Kd with HLA-A*02:03 (setting [3]) stood at 651 nM; with HLA-A*02:06 (setting [3]), 11800 nM; with HLA-A*02:02 (setting [3]), 6830 nM.
LINLVQYRIL: the Kd worked out at 2250 nM in the test with HLA-A*02:03 (setting [3]), 15900 nM with HLA-A*02:06 (setting [3]) and 2120 nM with HLA-A*02:02 (setting [3]).
Turning to ALVSDCAST, the figures for the Kd with HLA-A*02:03 (setting [3]), with HLA-A*02:06 (setting [3]) and in the test with HLA-A*02:02 (setting [3]) were 31.1 nM, 311 nM and 701 nM, respectively.
For the sequence IVLEFFMMVL, the Kd with HLA-A*02:06 (source organism: Dengue virus 3 Martinique/1243/1999) was found to be 107 nM.
As for YVHSLLYSSM, the Kd in the test with HLA-A*02:03 (setting [3]) was 6710 nM; in the test with HLA-A*02:06 (setting [3]) it was 2250 nM; with HLA-A*02:02 (setting [3]) it was 2200 nM.
With IASKINNNRI, the Kd was found to be 18500 nM in the test with HLA-A*02:03 (setting [3]), 9420 nM with HLA-A*02:06 (setting [3]) and 732 nM in the test with HLA-A*02:02 (setting [3]).
As for HLENDKIEDL, the Kd is 414 nM in the test with HLA-A*02:03 (setting [3]), 10600 nM with HLA-A*02:06 (setting [3]) and 526 nM with HLA-A*02:02 (setting [3]).
With AIYVFCISL, the Kd with HLA-A*02:03 (setting [2]) worked out at 201 nM; in the test with HLA-A*02:06 (setting [2]) it was 47.7 nM; with HLA-A*02:02 (setting [2]) it was 143 nM.
